Here are results for 1 molecule from US7919091B2, “Lipolysis stimulated receptor (LSR) specific antibodies” (Serono Genetics Institute S.A., priority 1997, dated 2011).

Assay [1] concerns the target T1, LSR (Rattus norvegicus, UniProt Q9WU74).
T1 construct: from tissue; host or cells: rat liver plasma membranes / solubilized rat liver membrane proteins
T1 sequence (Q9WU74 36-593): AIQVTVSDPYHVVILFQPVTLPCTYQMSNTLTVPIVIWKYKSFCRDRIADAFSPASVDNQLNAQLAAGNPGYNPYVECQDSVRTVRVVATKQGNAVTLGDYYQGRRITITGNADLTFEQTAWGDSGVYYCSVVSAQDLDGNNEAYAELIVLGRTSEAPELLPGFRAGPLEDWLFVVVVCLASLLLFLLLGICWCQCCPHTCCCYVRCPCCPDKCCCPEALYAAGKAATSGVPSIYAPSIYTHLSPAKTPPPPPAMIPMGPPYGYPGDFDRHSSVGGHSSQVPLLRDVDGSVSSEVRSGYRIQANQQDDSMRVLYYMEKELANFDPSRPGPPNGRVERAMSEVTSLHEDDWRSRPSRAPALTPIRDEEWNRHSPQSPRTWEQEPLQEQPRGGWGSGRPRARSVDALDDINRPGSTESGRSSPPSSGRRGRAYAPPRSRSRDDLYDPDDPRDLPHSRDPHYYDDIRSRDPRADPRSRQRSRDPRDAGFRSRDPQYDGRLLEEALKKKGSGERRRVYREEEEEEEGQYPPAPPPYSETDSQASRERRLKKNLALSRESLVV
T1 sequence (Q9WU74 36-525 isoform Q9WU74-3 limits assumed): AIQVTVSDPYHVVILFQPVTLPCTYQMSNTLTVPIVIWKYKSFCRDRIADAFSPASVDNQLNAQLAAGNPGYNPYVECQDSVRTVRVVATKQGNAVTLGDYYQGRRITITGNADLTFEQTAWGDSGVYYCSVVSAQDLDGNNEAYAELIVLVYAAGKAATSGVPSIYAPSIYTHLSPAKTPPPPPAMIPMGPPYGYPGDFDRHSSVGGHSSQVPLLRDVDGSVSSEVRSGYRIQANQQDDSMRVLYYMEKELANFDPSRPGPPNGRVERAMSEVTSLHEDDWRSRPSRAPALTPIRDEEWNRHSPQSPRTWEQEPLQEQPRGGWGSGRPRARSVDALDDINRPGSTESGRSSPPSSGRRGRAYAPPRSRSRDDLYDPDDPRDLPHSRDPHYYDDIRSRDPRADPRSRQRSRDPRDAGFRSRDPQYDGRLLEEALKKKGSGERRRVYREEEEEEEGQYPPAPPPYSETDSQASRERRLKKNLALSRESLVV
The assay is described as follows: LSR activity of binding, internalization and degradation of lipoproteins in the presence of leptin, rat hepatocytes. Type of assay: cell-based. As to conditions: increasing concentrations of leptin, difference with/without 500 μM oleate. The procedure: Rat hepatocytes in primary culture are incubated at 37° C. for 30 min with an increasing concentration of leptin, and then incubated at 37° C. for 4 hours with either 50 μg/ml of ^125I-LDL (specific activity: 209 cpm/ng) or 50 μg/ml of ^125I-VLDL (specific activity: 157 cpm/ng) in the absence or in the presence of 500 μM oleate. The cells are then washed and the quantities of ^125I-lipoproteins bound, incorporated and degraded are measured as described above in Example 1 (Bihain and Yen, 1992). The results shown in FIG. 23 represent the differences obtained between the cells incubated with or without oleate. Each point represents the mean of 3 measurements. The standard deviation for each point is included in the symbol.

Assay [2] in a line: Postprandial lipemic response in mice after a high-fat meal. It counts as in vivo. As to conditions: 50 μg leptin i.v. with test meal; ob/ob, db/db and control mice. The procedure:
Control, ob/ob and db/db mice, starved since the day before, are force-fed with a meal which is very high in fat [60% fat (37% saturated, 27% monounsaturated and 36% polyunsaturated fatty acids), 20% protein and 20% carbohydrate] providing 56 kcal of energy/kg of the weight of the animal. Immediately after the meal (time=0 hour), the mice are injected intravenously with 200 μl of physiological saline solution. At various times, 20 μl of blood are collected via the caudal vein in tubes containing 90 μg of disodium EDTA, and after separating the plasma by centrifugation, the plasma concentration of triglyceridemia is determined with the aid of an enzymatic assay kit. Each point on the curves presented corresponds to the mean with standard deviation obtained for 3 measurements per animal and for 3 different animals.
The procedure is the same as above, except that immediately after the meal (time=0 hour), the mice are injected intravenously with either 200 μl of physiological saline solution, or 200 μl of the same solution containing 50 μg of murine recombinant leptin.
ob/ob mice, starved since the day before, are force-fed with a meal identical to that described above. […] Blood is collected between 2 and 3 hours after the meal and the plasma concentration of triglycerides (TG) is measured. […]

B1: leptin: mouse recombinant leptin with hexahistidine end, expressed in E. coli (protein, UniProt P41160 22-167, looked up)
Leptin: VPIQKVQDDTKTLIKTIVTRINDISHTQSVSAKQRVTGLDFIPGLHPILSLSKMDQTLAVYQQVLTSLPSQNVLQIANDLENLRDLLHLLAFSKSCSLPQTSGLQKPESLDGVLEASLYSTEVVALSRLQGSLQDILQQLDVSPEC
modifications: hexahistidine tag
notes: mouse recombinant leptin with hexahistidine end, expressed in E. coli
Turning to B1, the “binding, internalization and degradation of VLDLs and LDLs” value in assay [1] is given as “increases”. For the same molecule, in assay [2], the “postprandial lipemic response (plasma triglycerides)” value is “reduce”.
